# From article PMC8218332 (Cell, 2021)
# B1: mAb 278 (antibody, V domains shown)
# VH: QVQLVQSGAEVKKPGASVKVSCKASGYIFIRYGISWVRQAPGQGLEWMGWISANNGYTNYAQKLQGRVTMTTDTSTSTAYMELRSLRSDDTAVYYCARDGGILTGYLDYFDHWGQGTLVTVSS
# VL: DIQMTQSPSSLSASVGDRLTITCRASQSIASYLNWYQQKPGKAPKLLIYAASSLQSGVPSRFSGSGSGTDFTLTISSLQPEDFATYHCQQSYSTLGITFGPGTKVDIK
# notes: copies: 2 + 2
# B2: mAb 222 (antibody, V domains shown)
# VH: EVQLVESGGGLIQPGGSLRLSCAASGLTVSSNYMSWVRQAPGKGLEWVSVIYSGGSTFYADSVKGRFTISRDNSKNTLYLQMNSLGAEDTAVYYCARGEGSPGNWFDPWGQGTLVTVSS
# VL: DVVMTQSPGTLSLSPGERATLSCRASQSVPSSYLAWYQQKPGQAPRLLIYGASTRATGIPDRFSGSGSGTDFTLTISRLEPEDFAVYYCQHYDTSPRFGGGTKVDIK
# notes: copies: 2 + 2
# B3: mAb 88 (antibody, V domains shown)
# VH: QLQLQESGPGLVKPSQTLSLTCTVSGGSISSGSYNWTWIRQPAGKGLEWIGRIYNSGSTNYNPSLKSRVTISVDTSKNQLSLKVRSVTAADTAVYYCARHCSGGTCYPKYYYGMDVWGQGTTVTVSS
# VL: QSALTQPPSVSEAPRQRVTISCSGSSSNIGNNAVNWYQQFPGKAPKLLIYYDDLLPSGVSDRFSGSKSGTSASLAISGVQSEDEADYYCAAWDDSLNVVVFGGGTKLTVL
# notes: copies: 2 + 2
# B4: REGN10987 (antibody, V domains shown)
# VH: QVQLVESGGGVVQPGRSLRLSCAASGFTFSNYAMYWVRQAPGKGLEWVAVISYDGSNKYYADSVKGRFTISRDNSKNTLYLQMNSLRTEDTAVYYCASGSDYGDYLLVYWGQGTLVTVSS
# VL: QSALTQPASVSGSPGQSITISCTGTSSDVGGYNYVSWYQQHPGKAPKLMIYDVSKRPSGVSNRFSGSKSGNTASLTISGLQSEDEADYYCNSLTSISTWVFGGGTKLTVL
# notes: source: provided by AstraZeneca; copies: 2 + 2
# B5: mAb 316 (antibody, V domains shown)
# VH: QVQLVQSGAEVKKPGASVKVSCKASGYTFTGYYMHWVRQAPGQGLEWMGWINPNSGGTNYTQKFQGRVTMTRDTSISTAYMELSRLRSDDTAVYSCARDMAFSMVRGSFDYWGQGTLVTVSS
# VL: QAVLTQPPSASGSPGQSVTISCTGTSSDVGGYNYVSWYQQHPGKAPKLMIYEVSKRPSGVPDRFSGSKSGNTASLTVSGLQAEDEADYYCSSYAGSNHWVFGGGTKLTVL
# notes: copies: 2 + 2
# Target: T1, His-tagged SARS-CoV-2 RBD T478K (SARS-CoV-2, Wuhan-Hu-1 RBD with T478K, T478K)
# T1 construct: not shown: His6, N-terminal, kept
# Assay: BLI
# Conditions: both partners purified
row,Binder,Kd
1,B1,1.5 nM
2,B2,0.2 nM
3,B3,2.4 nM
4,B4,0.35 nM
5,B5,0.69 nM
